Reference: patent US20170281792A1 (Genentech, published 2017)

T1: gD epitope-tagged mouse mesothelin expressed on cells (construct #385) (mouse, UniProt Q61468 298-582)
T1 sequence: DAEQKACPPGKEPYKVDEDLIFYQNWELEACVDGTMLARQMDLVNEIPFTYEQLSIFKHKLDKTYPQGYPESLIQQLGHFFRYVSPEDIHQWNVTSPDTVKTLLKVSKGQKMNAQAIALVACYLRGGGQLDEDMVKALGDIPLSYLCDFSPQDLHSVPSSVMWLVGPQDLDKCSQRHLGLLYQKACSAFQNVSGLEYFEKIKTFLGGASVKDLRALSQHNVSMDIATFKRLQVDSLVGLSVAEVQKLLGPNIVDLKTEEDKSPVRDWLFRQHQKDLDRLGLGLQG

T2: gD epitope-tagged cynomolgus monkey mesothelin expressed on cells (construct #383) (cynomolgus monkey)
T2 construct: also called cyno mesothelin
T2 chain: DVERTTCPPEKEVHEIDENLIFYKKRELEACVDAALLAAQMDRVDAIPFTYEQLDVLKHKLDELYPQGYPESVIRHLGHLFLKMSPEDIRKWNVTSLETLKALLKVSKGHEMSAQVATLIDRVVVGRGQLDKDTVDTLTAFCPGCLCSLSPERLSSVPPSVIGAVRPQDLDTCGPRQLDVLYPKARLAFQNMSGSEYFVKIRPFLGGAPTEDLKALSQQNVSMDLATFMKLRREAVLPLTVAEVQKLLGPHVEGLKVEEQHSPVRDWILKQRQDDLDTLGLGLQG

T3: gD epitope-tagged rat mesothelin expressed on cells (rat, UniProt Q9ERA7 298-582)
T3 sequence: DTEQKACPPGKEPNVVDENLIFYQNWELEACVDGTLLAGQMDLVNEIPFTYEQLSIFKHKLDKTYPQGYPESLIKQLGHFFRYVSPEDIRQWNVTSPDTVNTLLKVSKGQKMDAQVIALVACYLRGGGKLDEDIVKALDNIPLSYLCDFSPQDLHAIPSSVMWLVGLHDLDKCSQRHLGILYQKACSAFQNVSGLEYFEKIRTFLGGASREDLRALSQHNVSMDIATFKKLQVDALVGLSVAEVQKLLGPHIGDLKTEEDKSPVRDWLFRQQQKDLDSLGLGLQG


Key:
[1] = molecular target: T4, human mesothelin on cells (endogenous on tumour cell lines and tissue, or stably expressed on A431 or HT1080 … (human, UniProt Q13421 296-580)); experiment: Scatchard analysis (125I-labelled antibody) on HPAC cells, endogenous mesothelin
T4 construct: also called endogenous mesothelin; endogenous human mesothelin
Protocol: (§1) The data was analyzed with non-linear regression curve fitting in the New Ligand program (Genentech, Inc., South San Francisco, Calif.) to estimate Kd values (Munson et al., Anal. Biochem., 107 220-239 (1980)).

[2] = molecular target: T4, human mesothelin on cells (endogenous …); experiment: Scatchard analysis (125I-labelled antibody) on AsPC1 cells, endogenous mesothelin
Protocol: as §1

[3] = molecular target: T4, human mesothelin on cells (endogenous …); experiment: Scatchard analysis (125I-labelled antibody) on OvCar3x2.1 cells, endogenous mesothelin
Protocol: as §1

[4] = molecular target: T1, gD epitope-tagged mouse mesothelin …; experiment: FACS on stably transfected 293 cells
Protocol: Monoclonal antibodies were tested to determine if they cross-react with mesothelin from species other than human. […] Shaded residues are identical between at least two species. Unshaded residues differ between at least two of the four species. […] Anti-gD staining verified that mouse mesothelin was indeed expressed.

[5] = molecular target: T4, human mesothelin on cells (endogenous …); experiment: Scatchard analysis (125I-labelled antibody) on OvCar3 cells, endogenous mesothelin
Protocol: as §1

[6] = molecular target: T2, gD epitope-tagged cynomolgus monkey …; experiment: immunoprecipitation from BJAB cells stably expressing gD-tagged cyno mesothelin, Western blot with murine anti-gD
[7] = molecular target: T4, human mesothelin on cells (endogenous …); experiment: Scatchard; range for endogenous mesothelin in four pancreatic and two ovarian cell lines
Protocol: as §1

[8] = molecular target: T5, gD epitope-tagged human mesothelin expressed on cells (construct #387) (human, UniProt Q13421 296-580); experiment: Scatchard, 125I-labelled antibody on stably transfected 293 cells
T5 construct: also called gD-human mesothelin; gD-tagged human mesothelin
Protocol: as §1

[9] = molecular target: T4, human mesothelin on cells (endogenous …); experiment: Scatchard analysis (125I-labelled antibody) on HPAF-II cells, endogenous mesothelin
Protocol: as §1

[10] = molecular target: T6, C-terminally his-tagged human mesothelin expressed in CHO cells (Mono S fractions A11, A12, B1, B5) (human, UniProt Q13421 296-580); experiment: SPR: each Mono S fraction (A11, A12, B1, B5) flowed over a chip with prebound h7D9.v3
T6 construct: also called glycosylated mesothelin; not shown: C-terminal his tag
Excerpt: To determine whether h7D9.v3 binds to glycosylated mesothelin, C-terminally his-tagged human mesothelin was expressed in CHO cells, purified and further separated according to charge on a Mono S column into fractions with high (fraction A11), medium (A12), low (B1) and low-to-none (B5) glycosylation of mesothelin, as shown by Coomassie Blue staining on an SDS-PAGE gel. (FIG. 20, top left). […] (FIG. 20, right).

[11] = molecular target: T4, human mesothelin on cells (endogenous …); experiment: Scatchard analysis (125I-labelled antibody) on Capan2 cells, endogenous mesothelin
Protocol: as §1

[12] = molecular target: T7, E. coli derived recombinant human mesothelin (human, UniProt Q13421 296-580); experiment: Biacore-2000, IgG over immobilised E. coli derived human mesothelin, 1:1 fit
T7 construct: not shown: N-terminal unizyme His (HQ)-tag
Protocol: 7D9 variants were expressed as IgG by CHO transient transfection. IgG was purified with protein G affinity chromatography. The affinity of each 7D9 IgG variant for human mesothelin was determined by surface plasmon resonance using a BIACORE™-2000. BIACORE™ research grade CM5 chips were immobilized with approximately 110 RU of E. coli derived recombinant human mesothelin using the amine coupling kit from BIACORE™. […] Each sample was analyzed with 5-minute association and 3.5-minute dissociation. After each injection the chip was regenerated using 10 mM Glycine pH 1.7. Binding response was corrected by subtracting the RU from a flow cell with an irrelevant IgG immobilized at similar density. A 1:1 Languir model of simultaneous fitting of kₒₙ and koff was used for kinetics analysis.

[13] = molecular target: T5, gD epitope-tagged human mesothelin …; experiment: Scatchard, 125I-labelled antibody on stably transfected BJAB cells
Protocol: as §1

[14] = molecular target: T3, gD epitope-tagged rat mesothelin …; experiment: immunoprecipitation from BJAB cells stably expressing gD-tagged rat mesothelin, Western blot with murine anti-gD
[15] = molecular target: T5, gD epitope-tagged human mesothelin …; experiment: Scatchard, 125I-labelled antibody on stably transfected HT1080 cells
Protocol: as §1

[16] = molecular target: T7, E. coli derived recombinant human …; experiment: Biacore (column 'Kd (nM) Biacore'); antigen preparation not given, the filing's Biacore assays use E. coli derived human mesothelin
[17] = molecular target: T1, gD epitope-tagged mouse mesothelin …; experiment: FACS on transiently transfected 293 cells
[18] = molecular target: T2, gD epitope-tagged cynomolgus monkey …; experiment: FACS on transiently transfected 293 cells

T4 sequence (Q13421 other isoform, or with tags, fused parts or gaps): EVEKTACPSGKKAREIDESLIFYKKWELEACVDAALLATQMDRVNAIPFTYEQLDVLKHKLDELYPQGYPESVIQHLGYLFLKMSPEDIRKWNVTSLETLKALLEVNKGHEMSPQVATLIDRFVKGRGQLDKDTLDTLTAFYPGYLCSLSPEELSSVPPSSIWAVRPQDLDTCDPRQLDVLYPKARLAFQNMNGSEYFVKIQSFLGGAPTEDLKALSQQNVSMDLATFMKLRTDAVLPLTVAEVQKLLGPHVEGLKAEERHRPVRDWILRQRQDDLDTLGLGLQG
T5 sequence (Q13421 other isoform, or with tags, fused parts or gaps): as above
T7 sequence (Q13421 other isoform, or with tags, fused parts or gaps): as above
T6 sequence (Q13421 other isoform, or with tags, fused parts or gaps limits assumed): as the sequence (Q13421 other isoform, or with tags, fused parts or gaps) above

Binder	Kd [1]	Kd [2]	Kd [3]	binding result [4]	Kd [5]	binding result [6]	Kd [7]	Kd [8]	Kd [9]	Kd [10]	Kd [11]	Kd [12]	Kd [13]	binding result [14]	Kd [15]	Kd [16]	binding result [17]	binding result [18]
humanized monoclonal antibody 7D9.v3 (antibody, V domains shown, also called h7D9.v3; hu7D9.v3) VH: EVQLVESGGGLVQPGGSLRLSCAASGYTFTTYWMHWVRQAPGKGLEWVGYIRPSTGYTEYNQKFKDRFTISADTSKNTAYLQMNSLRAEDTAVYYCARSRWLLDYWGQGTLVTVS VL: DIQMTQSPSSLSASVGDRVTITCKSSQSVLYSSNQKNYLAWFQQKPGKAPKLLIYWASTRESGVPSRFSGSGSGTDFTLTISSLQPEDFATYFCHQYLSSYTFGQGTKVEIKR	1 nM	0.58 nM	0.56 nM	no binding (tested: 10 µg/ml)	0.53 nM	no binding	0.41 to 1 nM	0.2 nM	0.41 nM	1.5 nM	0.63 nM	1.9 nM	0.25 nM	no binding	0.97 nM			
mouse monoclonal antibody 7D9 (antibody, V domains shown, also called m7D9; mu7D9) VH: QVQLQQSGAELAKPGASVKMSCKASGYTFTTYWMHWVKQRPGQGLEWIGYIRPSTGYTEYNQKFKDKATLTADKSSSTAYMQLSSLTSEDSTVYYCARSRWLLDYWGQGTSLTVS VL: DIMMTQSPSSLAVSAGEKVTMSCKSSQSVLYSSNQKNYLAWFQQKPGQSPKLLIYWASTRESGVPDRFTGSGSGTDFTLTISSVQAEDLAVYFCHQYLSSYTFGGGTKVEIK																0.23 nM	no binding (tested: 0.02 µg/ml)	no binding (tested: 0.02 µg/ml)
